Experimental data reported in article PMC10984984, “Loss-of-function mutation in PRMT9 causes abnormal synapse development by dysregulation of RNA alternative splicing”.

T1: SF3B2 peptide R508me0 (unmodified) (UniProt Q13435)
T1 chain: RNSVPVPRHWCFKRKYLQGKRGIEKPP


Molecular target: T1, SF3B2 peptide R508me0 (unmodified)
Experiment: EMSA; R508me0; RNA 1 uM, peptide 1.4-140 uM; 20 mM Tris-HCl pH 8.0, 150 mM NaCl, 1.5 mM MgCl2, 0.5 mM EDTA, 100 U/mL RNasin, room temperature, 20 min; 6% native gel in 0.5x TBE
Settings: label: 5' 6-FAM

Row | Binder | binding result
1 | CAUAGAAAAAAGUUAAGUUAA (ssRNA) [Stag2 upstream probe A (nonconsensus anchoring site)] | binds
2 | UAAUAGUCAUGCCUUGGUUCA (ssRNA) [Stag2 downstream probe B (consensus anchoring site)] | binds
